From patent publication US20040259172A1
Numbered stars: 1 amine (or outer) side, 2 acyl side, 3 side chain; on linkers, the order of the positions; unused ones are H or OH. Square brackets hold non-standard residues; d marks the D form. Ends that are not written are not given here. βAsp = O=C(O)[C@H](CC(=O)[*:2])N[*:1]

Molecular target: mouse-anti-β-COMP sera (polyclonal antiserum specific for the human COMP derived sequence AQEDβSDH)
Assay: competitive ELISA: free peptide competes with biotinylated β-COMP on streptavidin plates for the mouse anti-β-COMP serum

| Binder | IC50 [µg/mL] |
| --- | --- |
| AQEDSDH [α-COMP peptide (non-isomerised (α) form of the COMP peptide)] | 0.435 |
| AQE[βAsp]SDH | 0.038 |
